Reference: patent publication US20180125988

What was measured:
[1] = molecular target: T1, AC1254 (CCD1-BSRS1-AE713)
T1 chain: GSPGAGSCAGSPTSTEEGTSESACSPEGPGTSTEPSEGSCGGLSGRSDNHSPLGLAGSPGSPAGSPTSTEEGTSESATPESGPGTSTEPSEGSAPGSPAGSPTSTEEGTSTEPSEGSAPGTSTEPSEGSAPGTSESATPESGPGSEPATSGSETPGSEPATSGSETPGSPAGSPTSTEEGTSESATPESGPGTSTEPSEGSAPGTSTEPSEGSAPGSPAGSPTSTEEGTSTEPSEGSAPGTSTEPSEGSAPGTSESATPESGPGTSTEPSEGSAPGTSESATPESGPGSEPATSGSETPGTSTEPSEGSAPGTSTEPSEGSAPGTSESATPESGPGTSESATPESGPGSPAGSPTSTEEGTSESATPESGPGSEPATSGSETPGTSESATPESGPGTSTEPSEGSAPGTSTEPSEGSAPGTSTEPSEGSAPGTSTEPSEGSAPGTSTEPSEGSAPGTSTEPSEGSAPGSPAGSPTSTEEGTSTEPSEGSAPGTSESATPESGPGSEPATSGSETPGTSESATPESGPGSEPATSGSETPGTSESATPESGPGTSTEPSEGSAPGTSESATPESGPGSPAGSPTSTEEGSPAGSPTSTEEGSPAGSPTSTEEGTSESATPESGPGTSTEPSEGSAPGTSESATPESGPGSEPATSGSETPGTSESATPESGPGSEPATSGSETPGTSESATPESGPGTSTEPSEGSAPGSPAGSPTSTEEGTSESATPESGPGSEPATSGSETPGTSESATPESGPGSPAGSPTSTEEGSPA

XTEN_AE864 = molecular target: T2, XTEN_AE864
T2 chain: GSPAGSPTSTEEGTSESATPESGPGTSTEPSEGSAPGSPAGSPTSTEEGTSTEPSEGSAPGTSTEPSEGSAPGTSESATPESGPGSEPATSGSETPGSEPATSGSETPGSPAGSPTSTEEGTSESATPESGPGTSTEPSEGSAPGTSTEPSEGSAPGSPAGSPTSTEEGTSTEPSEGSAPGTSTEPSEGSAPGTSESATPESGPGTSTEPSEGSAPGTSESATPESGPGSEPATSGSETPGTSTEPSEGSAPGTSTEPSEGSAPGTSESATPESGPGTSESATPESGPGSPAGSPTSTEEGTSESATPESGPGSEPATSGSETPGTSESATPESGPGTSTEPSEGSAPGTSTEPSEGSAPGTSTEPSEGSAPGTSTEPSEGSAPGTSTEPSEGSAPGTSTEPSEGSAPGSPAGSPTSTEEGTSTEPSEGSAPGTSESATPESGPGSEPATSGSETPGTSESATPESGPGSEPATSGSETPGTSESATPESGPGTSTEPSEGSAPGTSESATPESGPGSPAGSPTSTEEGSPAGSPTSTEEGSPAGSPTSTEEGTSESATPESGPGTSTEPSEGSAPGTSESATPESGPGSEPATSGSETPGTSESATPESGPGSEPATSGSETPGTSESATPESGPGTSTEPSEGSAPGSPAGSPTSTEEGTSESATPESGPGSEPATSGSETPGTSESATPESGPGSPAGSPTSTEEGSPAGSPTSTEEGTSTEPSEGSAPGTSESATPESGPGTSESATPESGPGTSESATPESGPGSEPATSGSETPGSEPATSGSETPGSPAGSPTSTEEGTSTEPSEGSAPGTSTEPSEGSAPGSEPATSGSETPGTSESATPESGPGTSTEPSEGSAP

B1: recombinant human MMP-7 (protein)
chain: YSLFPNSPKWTSKVVTYRIVSYTRDLPHITVDRLVSKALNMWGKEIPLHFRKVVWGTADIMIGFARGAHGDSYPFDGPGNTLAHAFAPGTGLGGDAHFDEDERWTDGSSLGINFLYAATHELGHSLGMGHSSDPNAVMYPTYGNGDPQNFKLSQDDIKGIQKLYGKRSNSRKK
proteolytic cleavage at the PCM (SDS-PAGE, C4 RP-HPLC); enzyme:substrate 1:200, 2 h, 37 C [1]: all proteases tested here cleaved the construct as intended, with varying degree of catalytic efficiency

B2: recombinant mouse MMP-9 (protein)
chain: FQTFKGLKWDHHNITYWIQNYSEDLPRDMIDDAFARAFAVWGEVAPLTFTRVYGPEADIVIQFGVAEHGDGYPFDGKDGLLAHAFPPGAGVQGDAHFDDDELWSLGKGVVIPTYYGNSNGAPCHFPFTFEGRSYSACTTDGRNDGTPWCSTTADYDKDGKFGFCPSERLYTEHGNGEGKPCVFPFIFEGRSYSACTTKGRSDGYRWCATTANYDQDKLYGFCPTRVDATVVGGNSAGELCVFPFVFLGKQYSSCTSDGRRDGRLWCATTSNFDTDKKWGFCPDQGYSLFLVAAHEFGHALGLDHSSVPEALMYPLYSYLEGFPLNKDDIDGIQYLYGRGSKPDPRPPATTTTEPQPTAPPTMCPTIPPTAYPTVGPTVGPTGAPSPGPTSSPSPGPTGAPSPGPTAPPTAGSSEASTESLSPADNPCNVDVFDAIAEIQGALHFFKDGWYWKFLNHRGSPLQGPFLTARTWPALPATLDSAFEDPQTKRVFFFSGRQMWVYTGKTVLGPRSLDKLGLGPEVTHVSGLLPRRLGKALLFSKGRVWRFDLKSQKVDPQSVIRVDKEFSGVPWNSHDIFQYQDKAYFCHGKFFWRVSFQNEVNKVDHEVNQVDDVGYVTYDLLQCP
proteolytic cleavage at the PCM (SDS-PAGE, C4 RP-HPLC); enzyme:substrate 1:6711, 2 h, 37 C [1]: all proteases tested here cleaved the construct as intended, with varying degree of catalytic efficiency

B3: recombinant human matriptase (protein)
chain: VVGGTDADEGEWPWQVSLHALGQGHICGASLISPNWLVSAAHCYIDDRGFRYSDPTQWTAFLGLHDQSQRSAPGVQERRLKRIISHPFFNDFTFDYDIALLELEKPAEYSSMVRPICLPDASHVFPAGKAIWVTGWGHTQYGGTGALILQKGEIRVINQTTCENLLPQQITPRMMCVGFLSGGVDSCQGDSGGPLSSVEADGRIFQAGVVSWGDGCAQRNKPGVYTRLPLFRDWIKENTGV
proteolytic cleavage at the PCM (SDS-PAGE, C4 RP-HPLC); enzyme:substrate 1:12.5, 2 h, 37 C [1]: all proteases tested here cleaved the construct as intended, with varying degree of catalytic efficiency

B4: human neutrophil elastase (protein)
chain: IVGGRRARPHAWPFMVSLQLRGGHFCGATLIAPNFVMSAAHCVANVNVRAVRVVLGAHNLSRREPTRQVFAVQRIFENGYDPVNLLNDIVILQLNGSATINANVQVAQLPAQGRRLGNGVQCLAMGWGLLGRNRGIASVLQELNVTVVTSLCRRSNVCTLVRGRQAGVCFGDSGSPLVCNGLIHGIASFVRGGCASGLYPDAFAPVAQFVNWIDSIIQ
proteolytic degradation (SDS-PAGE), elastase:XTEN 1:100, 2 h, 37 C (XTEN_AE864): XTEN_AE864 was completely digested by neutrophil elastase at the 1:100 molar ratio
proteolytic degradation (SDS-PAGE), elastase:XTEN 1:1000, 2 h, 37 C (XTEN_AE864): Partial degradation was observed for XTEN_AE864 when incubating with neutrophil elastase at the 1:1000 molar ratio
